Measured values: PMC5727259, “Voltage-gated sodium channels assemble and gate as dimers” (Nature Communications, 2017)

Target: the molecule itself
Experiment: single-molecule pull-down (SiMPull) with GFP photobleaching step counting; lysate of transfected HEK293 cells (0.4% CHAPS buffer) perfused over anti-GFP antibody on passivated coverslips; low surface density (0.05 molecules/µm^2); TIRF imaging

Protein	stoichiometry N
GFP-tagged chloride channel ClC-3 (natural protein, UniProt P51790 1-818, looked up, chloride channel ClC-3 from plasmid pCLC3sGFP (Addgene); also called ClC-3-GFP; pCLC3sGFP; source: HEK293, transfected, in lysate (CHAPS buffer)) MESEQLFHRGYYRNSYNSITSASSDEELLDGAGVIMDFQTSEDDNLLDGDTAVGTHYTMTNGGSINSSTHLLDLLDEPIPGVGTYDDFHTIDWVREKCKDRERHRRINSKKKESAWEMTKSLYDAWSGWLVVTLTGLASGALAGLIDIAADWMTDLKEGICLSALWYNHEQCCWGSNETTFEERDKCPQWKTWAELIIGQAEGPGSYIMNYIMYIFWALSFAFLAVSLVKVFAPYACGSGIPEIKTILSGFIIRGYLGKWTLMIKTITLVLAVASGLSLGKEGPLVHVACCCGNIFSYLFPKYSTNEAKKREVLSAASAAGVSVAFGAPIGGVLFSLEEVSYYFPLKTLWRSFFAALVAAFVLRSINPFGNSRLVLFYVEYHTPWYLFELFPFILLGVFGGLWGAFFIRANIAWCRRRKSTKFGKYPVLEVIIVAAITAVIAFPNPYTRLNTSELIKELFTDCGPLESSSLCDYRNDMNASKIVDDIPDRPAGIGVYSAIWQLCLALIFKIIMTVFTFGIKVPSGLFIPSMAIGAIAGRIVGIAVEQLAYYHHDWFIFKEWCEVGADCITPGLYAMVGAAACLGGVTRMTVSLVVIVFELTGGLEYIVPLMAAVMTSKWVGDAFGREGIYEAHIRLNGYPFLDAKEEFTHTTLAADVMRPRRNDPPLAVLTQDNMTVDDIENMINETSYNGFPVIMSKESQRLVGFALRRDLTIAIESARKKQEGIVGSSRVCFAQHTPSLPAESPRPLKLRSILDMSPFTVTDHTPMEIVVDIFRKLGLRQCLVTHNGRLLGIITKKDILRHMAQTANQDPASIMFN	2
transient outward potassium channel Kv4.3 tagged with GFP (natural protein, UniProt Q9UK17 1-655, looked up, potassium channel Kv4.3 from plasmid pcDNA3.1-Kv4.3-GFP; also called Kv4.3-GFP; pcDNA3.1-Kv4.3-GFP; source: HEK293, transfected, in lysate (CHAPS buffer)) MAAGVAAWLPFARAAAIGWMPVANCPMPLAPADKNKRQDELIVLNVSGRRFQTWRTTLERYPDTLLGSTEKEFFFNEDTKEYFFDRDPEVFRCVLNFYRTGKLHYPRYECISAYDDELAFYGILPEIIGDCCYEEYKDRKRENAERLMDDNDSENNQESMPSLSFRQTMWRAFENPHTSTLALVFYYVTGFFIAVSVITNVVETVPCGTVPGSKELPCGERYSVAFFCLDTACVMIFTVEYLLRLFAAPSRYRFIRSVMSIIDVVAIMPYYIGLVMTNNEDVSGAFVTLRVFRVFRIFKFSRHSQGLRILGYTLKSCASELGFLLFSLTMAIIIFATVMFYAEKGSSASKFTSIPASFWYTIVTMTTLGYGDMVPKTIAGKIFGSICSLSGVLVIALPVPVIVSNFSRIYHQNQRADKRRAQKKARLARIRVAKTGSSNAYLHSKRNGLLNEALELTGTPEEEHMGKTTSLIESQHHHLLHCLEKTTGLSYLVDDPLLSVRTSTIKNHEFIDEQMFEQNCMESSMQNYPSTRSPSLSSHPGLTTTCCSRRSKKTTHLPNSNLPATRLRSMQELSTIHIQGSEQPSLTTSRSSLNLKADDGLRPNCKTSQITTAIISIPTPPALTPEGESRPPPASPGPNTNIPSIASNVVKVSAL	4
